From patent US11795454B2, “Targeted delivery system” (Cedars-Sinai Medical Center, priority 2009, dated 2023)
Entries after “also recorded” stand apart in the source; their conditions may differ.

Tests used:
MDA-MB-231 (HER2−) cells = assay: HerDox targeted toxicity in vitro, separate cultures; assay type: cell-based, human; details: MDA-MB-231, day 3
Protocol: (§1) All treatments, N=3. FIG. 27A. Comparing cytotoxicity to HER2+ (MDAMB-435) and HER2− (MDA-MB-231) cells in separate cultures. Left, Relative survival (as % of untreated cells) on day 3 of treatment. Right, Micrograph of live cells after treatment. Control, mock (HBS) treatment. FIG. 27B, Receptor specificity of cytotoxicity. […] FIG. 27C, Toxicity to cells displaying differential HER2. Cytotoxicities from HerDox titrations were assessed on each cell line by metabolic assay and confirmed by crystal violet stain on day 3 of treatment. CD50 values (shown in log scale) were determined by non-linear regression analyses of HerDox killing curves using GraphPad Prism. The relative HER2 level of each cell line is shown next to each CD50 value. FIG. 27D, Targeting in a mixed MDA-MB-435(HER2+,GFP−)/MDA-MB-231(HER2−,GFP+) cell culture. Survival was determined by calculating the relative doubling time (DT) of experimental (exp) cells normalized by mock-treated (con) cells based on crystal violet stains (total cells) and GFP fluorescence (MDAMB-231 cells), and applying DTMDA-MB-435=DTTotal-DTMDA-MB-231 as previously described. Relative survival is shown for Day 2 of treatment. FIG. 27E, Targeted glioma cell death in vitro. U251 cells were treated once with the indicated HerDox (and competitive inhibitor where indicated) or Dox doses and measured for cell survival at the indicated time points after treatment. * P<0.05 compared to Mock.
For all in vitro treatments, cell lines were grown for ˜36 h after plating (104/well in 96-well dishes) to allow receptor re-expression, followed by media replacement with new media containing indicated constructs in reduced volume at the indicated final molarities for 4 h with rocking, followed by supplementation with additional media and continued growth for the indicated time periods. Except for the experiments performed on the U251 glioma cells (which received a one-time treatment), cells received these treatments daily while separate sets of wells were assessed for cell death by either metabolic assay (CellTiter Promega Corporation, Madison, WI, USA) or crystal violet stain each day. Where indicated, cells received competitive inhibitor (eHRG) at 10× molar excess for 30 min-1 h at 4° C. before treatment. Treatment of mixed (HER2+/HER2−) cell cultures with HerDox or Dox (0.5 uM), and cell surface receptor subunit level determination were performed as previously described.

[1] = test system: MDA-MB-435(HER2+,GFP−)/MDA-MB-231(HER2−,GFP+) cell culture; assay: Targeting in a mixed HER2+/HER2− cell culture; assay type: cell-based, human; details: 0.5 uM, day 2
Protocol: as §1, with “FIG. 27E, Targeted glioma cell death in vitro.” left out, “Mock. […]” for “Mock.”

MDA-MB-435 tumors [2] = assay: Therapeutic efficacy in vivo, daily i.v. injections for 7 days; parameters: species or system mouse; details: for tumor growth: 0.004 mg/kg Dox equivalent, daily i.v. for seven days
MDA-MB-435 tumors [3] = assay: HerDox/Dox tumor targeting, biodistribution and pharmacokinetics by fluorescence imaging
Protocol: Tumor-bearing mice were injected with 0.02 mg/kg (final Dox dose) of HerDox or Dox via the tail vein and imaged with a custom small animal imager. FIG. 19A, Imaging of live mice after TV delivery of HerDox. Time points are shown as minutes after injection. Tumors are indicated by arrows. FIG. 19B, Imaging of tumors and tissues harvested at 3 h after injection of HerDox or Dox. Fluorescence signal from Dox is pseudo-colored according to the color bar, with a shift toward 100 indicating high fluorescence intensity.
FIG. 29A, Live mouse imaging of HerDox at indicated time points after injection. Arrows, Tumors. 29B-29C, Comparative biodistribution of HerDox and Dox in tissues harvested at 3 h post-injection. FIG. 29B, Imaging of biodistribution in harvested tissues. Pseudocolored FI corresponds to the color bar. Max, highest FI. FIG. 29C, Quantification of HerDox and Dox biodistribution, showing Dox FI/tissue. FIG. 29D. Comparative pharmacokinetics of HerDox and Dox in mice with tumors expressing differential HER2. Tissues were harvested from independently injected mice euthanized at indicated time points after injection and FI/tissue acquired using a small animal imaging system as described herein.
Mice received a single tail vein injection of Dox alone or the complex (HerDox) (0.02 mg/kg with respect to Dox conc) and were imaged live using a customized macro-illumination and detection system.
Heart rate and body temperature were monitored. […] Three beats were averaged for each measurement.
A customized macro-illumination and detection system was used for in vivo and tissue imaging. Dox was excited with the 488 nm line of a Coherent Innova ArKr laser. Laser light (300 mW) was directed into a light-tight box via mirrors and expanded by an engineered circular tophat diffuser (Thorlabs ED1-C20) to a uniform circular beam of approximately 15 cm in diameter. The incidence angle to the vertical plane was approximately 150. Fluorescence light was collected via a telecentric lens (Melles-Griot 59LGG925 base lens with a 59LGL428 attachment lens) that can operate at f/#2, has a magnification of 0.9, working distance of 257 mm and a depth of field of 81.5 mm. A bandpass filter (580 nm with a 50 nm bandwidth) was used in the emission pathway to reject the excitation light. Images showing FI were collected with a cooled CCD camera (Hamamatsu ORCA-ER). Where indicated, a Maestro imager was used (Cedars-Sinai Imaging Core Facility). ImageJ was used to calculate average fluorescence intensities of the overall region of each selected tissue.
MDA-MB-435 tumor-bearing mice were imaged live after a single tail vein injection of HerDox, in order to visualize tumor-targeting ability in vivo.

[4] = CryoEM of HerDox particles; assay type: physicochemical; details: mostly round particles
Protocol: Sample preparation and imaging was performed by NanoImaging Services, Inc., La Jolla, CA, USA.
CryoEM was performed by NanoImaging Services, Inc. (La Jolla, CA, USA) implementing the following procedures (provided by NanoImaging Services, Inc.): Samples were preserved in vitrified ice supported by carbon coated holey carbon films on 400 mesh copper grids. All samples were prepared by applying a 3 μL drop of undiluted sample suspension to a cleaned grid, blotting away with filter paper and immediately proceeding with vitrification in liquid ethane. Grids were stored under liquid Nitrogen until transferred to the electron microscope for imaging. All grids were prepared the day the sample was delivered (complexes were assembled immediately before delivery). Electron microscopy was performed using an FEI Tecnai T12 electron microscope, operating at 120 KeV equipped with an FEI Eagle 4K×4K CCD camera. Vitreous ice grids were transferred into the electron microscope using a stage that maintains the grids at below −170 C. Images of the grid were acquired at multiple scales to assess the overall distribution of the specimen. After identifying potentially suitable target areas for imaging at lower magnifications, higher magnification images were acquired at nominal magnifications of 52,000× (0.21 nm/pixel) and 21,000× (0.50 nm/pixel). […]

[5] = Cardiac function (echocardiography) and myocardial histology of treated mice
From the text: Histology of myocardia from treated mice. Micrographs show representative H&E stained specimens from treated mice.
Female immunodeficient (nu/nu) mice (6-8 weeks; Charles River Laboratories International, Wilmington, MA, USA) received subcutaneous bilateral flank injections of 1×10^7 indicated cells and monitored until tumors reached ˜200-300 mm3, at which point the following treatments were initiated. […] To assess therapeutic efficacy, a new group of tumor-bearing mice received daily i.v. (tail vein) injections of HerDox or Dox at indicated doses for 7 days followed by continued monitoring of tumor volumes (assessed by measuring tumor length and width using calipers, and applying LxW2), animal weights, and heart function. […] Cardiac function in anesthetized mice was evaluated by a Vevo 770 High-Frequency Ultrasound system (VisualSonics, Toronto, Canada). Heart rate and body temperature were monitored. Superficial hair was removed from the region of interest with a depilatory cream (Nair) before imaging. The 2-dimensional guided M-mode images of the left ventricle were obtained in the short-axis view at the papillary level with the mouse in the supine position. All primary measurements were traced manually and digitized by goal-directed software installed within the echocardiograph. Three beats were averaged for each measurement. All measurements were done from leading edge to leading edge according to the American Society of Echocardiography guidelines. At animal study completion, tissue harvested from euthanized mice were fixed in 4% paraformaldehyde/PBS at 4° C. for 24 h followed by transfer into 20% sucrose/PBS and storage at −80° C. before immunohistochemical processing. Specimens and hematoxylin/eosin staining were prepared by AML Laboratories, Inc., Baltimore, MD, USA.

[6] = maximum FI, ˜3 h after injection
[7] = single tail vein injection, 0.02 mg/kg Dox

COc1cccc2c1C(=O)c1c(O)c3c(c(O)c1C2=O)C[C@@](O)(C(=O)CO)C[C@@H]3O[C@H]1C[C@H](N)[C@H](O)[C@H](C)O1.Cl [Dox, Doxorubicin-HCl, reference compound]
toxicity / survival (MDA-MB-231 (HER2−) cells): no preference | cell growth in mixed cell culture [1]: reduced efficacy | tumor growth (MDA-MB-435 tumors [2]): low efficacy | tumor ablation compared with HerDox (MDA-MB-435 tumors [2]; 10× higher Dox dose (0.04 mg/kg)): slightly less effective | fluorescence in the lungs and skeletal muscle (MDA-MB-435 tumors [3]; harvested ˜3 h after injection): Lower levels of fluorescence | fluorescence in the kidneys (MDA-MB-435 tumors [3]; mouse, in vivo): detectable fluorescence | fluorescence in the liver (MDA-MB-435 tumors [3]; mouse, in vivo): detectable fluorescence | fluorescence in the tumors (MDA-MB-435 tumors [3]; mouse, in vivo): detectable fluorescence | tumor accumulated Dox lower compared to HerDox (MDA-MB-435 tumors [3]; mouse, in vivo): 1000 fluorescence units

B1: HerDox: self-assembled nanoparticle of oligonucleotide duplex, doxorubicin and HerPBK10 (conjugate)
chain: LPPRLKEMKSQESAAGSKLVLRCETSSEYSSLRFKWFKNGNELNRKNKPQNIKIQKKPGKSELRINKASLADSGEYMCKVISKLGNDSASANITIVESNEIITGMPASTEGAYVSSESPIRISVSTEGANTSSSTSTSTTGTSHLVKCAEKEKTFCVNGGECFMVKDLSNPSRYLCKCQPGFTGARCTENVPMKVQNQEKAEELYMRRAAMYEEGPPPSYESVVSAAPVAAALGSPFDAPLDPPFVPPRYLRPTGGRNSIRYSELAPLFDTTRVYLVDNKSTDVASLNYQNDHSNFLTTVIQNNDYSPGEASTQTINLDDRSHWGGDLKTILHTNMPNVNEFMFTNKFKARVMVSRLPTKDNQVELKYEWVEFTLPEGNYSETMTIDLMNNAIVEHYLKVGRQNGVLESDIGVKFDTRNFRLGFDPVTGLVMPGVYTNEAFHPDIILLPGCGVDFTHSRLSNLLGIRKRQPFQEGFRITYDDLEGGNIPALLDVDAYQASLKDDTEQGGGGAGGSNSSGSGAEENSNAAAAAMQPVEDMNDHAIRGDTFATRAEEKRAEAEAAAEAAAPAAQPEVEKPQKKPVIKPLTEDSKKRSYNLISNDSTFTQYRSWYLAYNYGDPQTGIRSWTLLCTPDVTCGSEQVYWSLPDMMQDPVTFRSTRQISNFPVVGAELLPVHSKSFYNDQAVYSQLIRQFTSLTHVFNRFPENQILARPPAPTITTVSENVPALTDHGTLPLRNSIGGVQRVTITDARRRTCPYVYKALGIVSPRVLSSRTFKKKKKKKKKK
particle diameter [4]: ~10 nm | myocardial histology ([5]; H&E): normal cardiac morphology | stroke volume, cardiac output, left ventricular internal dimension and volume ([5]; echocardiography 25 days following injections, 0.004 mg/kg): no effect on these measurements; also recorded: no cardiac dysfunction or histological damage | cell growth in mixed cell culture [1]: substantially reduced HER2+ but not HER2− cell growth | tumor growth (MDA-MB-435 tumors [2]): ablation of tumor growth | dose for tumor ablation lower compared to untargeted doxorubicin (MDA-MB-435 tumors [2]; intravenous delivery): > 10 × | fluorescence in heart, spleen, lungs, and skeletal muscle (MDA-MB-435 tumors [3]; harvested ˜3 h after injection): did not exhibit any fluorescence; also recorded: no detectable fluorescence | fluorescence in the kidneys (MDA-MB-435 tumors [3]; harvested ˜3 h after injection): barely detectable | fluorescence in the liver (MDA-MB-435 tumors [3]; harvested ˜3 h after injection): substantially lower levels of fluorescence | fluorescence in the tumors (MDA-MB-435 tumors [3]; harvested ˜3 h after injection): intense fluorescence | kidney FI lower than tumors (MDA-MB-435 tumors [3]; [6]): 65% | liver FI lower than tumors (MDA-MB-435 tumors [3]; [6]): 45% | time of kidney entry (MDA-MB-435 tumors [3]; pharmacokinetics, single i.v. injection): ≤ 10 min | time detectable in the tumors after injection (MDA-MB-435 tumors [3]; [7]): up to 100 min | time of accumulation at the tumors after injection (MDA-MB-435 tumors [3]; [7]): ≤ 20 min | tumor accumulation higher compared to normal tissue (MDA-MB-435 tumors [3]; up to 24 h, heart, liver, muscle, spleen, lung, kidneys): 500-1000 fluorescence units higher/tissue
